Data reported in PMC8919572.
pEC50, pKd: −log10 of the molar value.

Legend:
[1] = target: human CD47:Fc protein (human) (UniProt Q08722); test: ELISA; dual-binding ELISA: human CD47:Fc as capture, DSP107 titrated, human biotinylated-4-1BB as detector; three separately produced batches of DSP107
[2] = target: cynomolgus CD47 (cynomolgus); test: SPR; orientation and conditions not given (Table S2, supplementary methods)
[3] = target: human 4-1BB (surface plasmon resonance) (human) (UniProt Q07011); test: as above
[4] = target: cynomolgus 4-1BB (cynomolgus); test: as above
[5] = target: human CD47 (surface plasmon resonance) (human) (UniProt Q08722); test: as above
[6] = target: Dual Signaling Protein 107 (DSP107) (human) (UniProt P78324); test: SEC-MALS; purified DSP107 in solution
[7] = target: human CD47 expressed on CHO-K1 cells (human) (UniProt Q08722); test: cell doublet formation by flow cytometry; mixed CFSE stained CHO.CD47 and CytoLightRed stained HT1080.4-1BB cells with 5 μg/ml DSP107; doublets as double-positive events; blocking with CD47 mAb or soluble 4-1BBL
[8] = target: 4-1BB on HT1080.4-1BB cells (UniProt Q07011); test: as above
Sequence of 4-1BB on HT1080.4-1BB cells (Q07011 24-255): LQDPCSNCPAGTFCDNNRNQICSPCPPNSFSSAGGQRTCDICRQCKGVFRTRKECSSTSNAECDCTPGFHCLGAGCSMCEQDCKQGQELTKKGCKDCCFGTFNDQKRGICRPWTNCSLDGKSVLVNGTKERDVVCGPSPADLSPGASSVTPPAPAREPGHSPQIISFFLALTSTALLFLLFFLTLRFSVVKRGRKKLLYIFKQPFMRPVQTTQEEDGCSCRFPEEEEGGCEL

Sequence of human CD47 (surface plasmon resonance) (human) (Q08722 19-323): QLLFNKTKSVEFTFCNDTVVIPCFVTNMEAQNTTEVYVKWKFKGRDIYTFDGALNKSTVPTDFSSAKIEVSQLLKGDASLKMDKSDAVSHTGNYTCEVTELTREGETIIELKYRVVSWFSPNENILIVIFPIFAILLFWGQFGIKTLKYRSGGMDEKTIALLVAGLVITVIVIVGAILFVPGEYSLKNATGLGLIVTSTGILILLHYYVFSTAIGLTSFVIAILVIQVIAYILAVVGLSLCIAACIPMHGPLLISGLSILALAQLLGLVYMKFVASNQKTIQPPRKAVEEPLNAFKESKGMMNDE
Sequence of human CD47 expressed on CHO-K1 cells (human) (Q08722 19-323): as above
Sequence of human 4-1BB (surface plasmon resonance) (human) (Q07011 24-255): as the sequence (Q07011 24-255) above

With “Dual Signaling Protein 107 (DSP107) (from UniProt P78324 31-373; P41273 50-254)” the pEC50 [1] was 9.03, the pKd [2] was 8.76 and the pKd [3] was 9.15. It also gave a pKd [4] of 9.47, a pKd [5] of 8.93 and a stoichiometry N [6] of 3. For the same substance, the percent doublets of CHO-K1.CD47 and HT1080.4-1BB cells [7] was 25% and the percent doublets of CHO-K1.CD47 and HT1080.4-1BB cells [8] was 25%.
